From publication doi:10.1101/2025.05.22.655525 (bioRxiv, 2025)
Like-named read-outs stand apart in the source and are kept apart here.

What was measured:
crystal structure [1] = target: the molecule itself; assay: crystal structure
crystal structure [2] = target: the molecule itself; assay: crystal structure; remark: listed apart in the source

B1: human syntenin-1 PDZ tandem (PDZ1-PDZ2), residues 113-273 (domain or fragment, UniProt O00560 113-273, looked up)
chain: REVILCKDQDGKIGLRLKSIDNGIFVQLVQANSPASLVGLRFGDQVLQINGENCAGWSSDKAHKVLKQAFGEKITMTIRDRPFERTITMHKDSTGHVGFIFKNGKITSIVKDSSAARNGLLTEHNICEINGQNVIGLKDSQIADILSTSGTVVTITIMPAF
Crystal structure [1]
  binding result: binds

B2: human syntenin-1 PDZ tandem (PDZ1-PDZ2), residues 113-276 (domain or fragment, UniProt O00560 113-276, looked up)
chain: REVILCKDQDGKIGLRLKSIDNGIFVQLVQANSPASLVGLRFGDQVLQINGENCAGWSSDKAHKVLKQAFGEKITMTIRDRPFERTITMHKDSTGHVGFIFKNGKITSIVKDSSAARNGLLTEHNICEINGQNVIGLKDSQIADILSTSGTVVTITIMPAFIFE
Crystal structure [2]
  binding result: binds
